# Literature values in patent publication US20060183681A1, “Stabilized compositions containing natriuretic peptides” (Bio-Rad Laboratories, Inc., priority 2005, published 2006).
substance,measurement,value
B-type natriuretic peptide [BNP],half-life (t1/2) in vivo,approximately 23 minutes
